Experimental data as given in article PMC5538626, “Structural and functional analysis of the GABARAP interaction motif (GIM)” (EMBO Reports, 2017).
Where a chain is given by its changes, count along the chain named. Numbers in names are those of the source.

B1: E19V: GFP-FUNDC1 E19V (protein, UniProt Q8IVP5 1-155, looked up, variant E19V)
FUN14 domain-containing …: MATRNPPPQDYESDDDSYVVLDLTEYARRHQWWNRVFGHSSGPMVEKYSVATQIVMGGVTGWCAGFLFQKVGKLAATAVGGGFLLLQIASHSGYVQIDWKRVEKDVNKAKRQIKKRANKAAPEINNLIEEATEFIKQNIVISSGFVGGFLLGLAS
modifications: GFP tag
B2: L21V: GFP-FUNDC1 L21V (protein, UniProt Q8IVP5 1-155, looked up, variant L21V)
FUN14 domain-containing …: B1 FUN14 domain-containing … with V19E, L21V
modifications: GFP tag
B3: PLEKHM1‐WCIL (full length): full-length PLEKHM1-Flag, variant LIR WVNV/WCIL (protein)
chain: MLSVVENGLDPQAAIPVIKKKLVGSVKALQKQYVSLDTVVTSEDGDANTMCSALEAVFIHGLHAKHIRAEAGGKRKKSAHQKPLPQPVFWPLLKAVTHKHIISELEHLTFVNTDVGRCRAWLRLALNDGLMECYLKLLLQEQARLHEYYQPTALLRDAEEGEFLLSFLQGLTSLSFELSYKSAILNEWTLTPLALSGLCPLSELDPLSTSGAELQRKESLDSISHSSGSEDIEVHHSGHKIRRNQKLTASSLSLDTASSSQLSCSLNSDSCLLQENGSKSPDHCEEPMSCDSDLGTANAEDSDRSLQEVLLEFSKAQVNSVPTNGLSQETEIPTPQASLSLHGLNTSTYLHCEAPAEPLPAQAASGTQDGVHVQEPRPQAPSPLDLQQPVESTSGQQPSSTVSETAREVGQGNGLQKAQAHDGAGLKLVVSSPTSPKNKSWISEDDFYRPSREQPLESASDHPIASYRGTPGSRPGLHRHFSQEPRKNCSLGALDQACVPSPGRRQAQAAPSQGHKSFRVVHRRQMGLSNPFRGLMKLGTVERRGAMGIWKELFCELSPLEFRLYLSNEEHTCVENCSLLRCESVGPAHSDGRFELVFSGKKLALRASSQDEAEDWLDRVREALQKVRPQQEDEWCILQYPDQPEEPPEAPQGCLSPSDLLSEPAALQGTQFDWSSAQVPEPDAIKESLLYLYMDRTWMPYIFSLSLEALKCFRIRNNEKMLSDSHGVETIRDILPDTSLGGPSFFKIITAKAVLKLQAGNAEEAALWRDLVRKVLASYLETAEEAVTLGGSLDENCQEVLKFATRENGFLLQYLVAIPMEKGLDSQGCFCAGCSRQIGFSFVRPKLCAFSGLYYCDICHQDDASVIPARIIHNWDLTKRPICRQALKFLTQIRAQPLINLQMVNASLYEHVERMHLIGRRREQLKLLGDYLGLCRSGALKELSKRLNHRNYLLESPHRFSVADLQQIADGVYEGFLKALIEFASQHVYHCDLCTQRGFICQICQHHDIIFPFEFDTTVRCAECKTVFHQSCQAVVKKGCPRCARRRKYQEQNIFA
modifications: left off: Flag, end not stated, kept
B4: Plekhm1-mutLIR: full-length PLEKHM1-Flag, mutant LIR EDEWVNV/AAAAVNG (protein)
chain: B3 chain with E632A, D633A, E634A, W635A, C636V, I637N, L638G
modifications: left off: Flag, end not stated, kept

Columns and labels:
[1] = system: endogenous GABARAP; assay: Co-immunoprecipitation of GFP-FUNDC1 with endogenous GABARAP, HEK293 cells; type: cell-based; details: HEK293, non-stimulated (DMSO); Fig 5C left
Protocol: (§1) Blots were probed for the presence of endogenous GABARAP and LC3B proteins. • 3xFlag‐FIP200 WT, E703V, I705V, E703V/I705V and F702A/I705A were overexpressed in HEK293 cells and immunoprecipitated using anti‐Flag beads and subjected to SDS–PAGE and Western blotting. Blots were probed for the presence of endogenous GABARAP and LC3B proteins. • GFP‐FUNDC1 WT, E19V, L21V, E19V/L21V and Y18A/L21A were overexpressed in HEK293 cells and either treated with vehicle only (DMSO) or 20 μM CCCP for 2 h, lysed and GFP‐FUNDC1 immunoprecipitated using anti‐GFP beads (or anti‐RFP beads as control) and subjected to SDS–PAGE and Western blotting. Blots were probed for the presence of endogenous GABARAP and LC3B proteins.

[2] = system: endogenous LC3B; assay: Co-immunoprecipitation of GFP-FUNDC1 with endogenous LC3B, HEK293 cells; type: cell-based; details: HEK293, non-stimulated (DMSO); Fig 5C left
Protocol: as §1

[3] = system: GFP-LC3B; assay: Co-immunoprecipitation of full-length PLEKHM1 LIR variants with GFP-LC3B; details: full-length PLEKHM1-Flag, Fig 4C

Molecule	interaction of FUNDC1 with endogenous GABARAP [1]	interaction of FUNDC1 with endogenous LC3 [2]	co-precipitation with GFP-LC3B [3]	co-precipitation with GFP-LC3B ([3]; listed as Plekhm1-WCIL)
B1	moderately enhanced	increased LC3 interaction		
B2	little effect	little effect		
B3			increased co‐precipitation with GFP‐LC3B	increased interaction
B4			decreased interaction	
